Laboratory results from publication PMC10700544.

B1: wild type RNase J, BACTH fusions (pUT18 and pKNT25) [Helicobacter pylori] / wild type RNase J, BACTH fusions (pUT18 and pKNT25) [Helicobacter pylori] (parent)
chain 1: MTDNNQNNENHENSSENSKADEMRAGAFERFTNRKKRFRENAQKNAEYSNHEASSHHKKEHRPNKKPNNHHKQKHAKTRNYAQEELDSNKVEGVTEILHVNERGTLGFHKELKKGVEANNKIQVEHLNPHYKMNLNSKASVKITPLGGLGEIGGNMMVIETPKSAIVIDAGMSFPKEGLFGVDILIPDFSYLHQIKDKIAGIIITHAHEDHIGATPYLFKELQFPLYGTPLSLGLIGSKFDEHGLKKYRSYFKIVEKRCPISVGEFIIEWIHITHSIIDSSALAIQTKAGTIIHTGDFKIDHTPVDNLPTDLYRLAHYGEKGVMLLLSDSTNSHKSGTTPSESTIAPAFDTLFKEAQGRVIMSTFSSNIHRVYQAIQYGIKYNRKIAVIGRSMEKNLDIARELGYIHLPYQSFIEANEVAKYPDNEILIVTTGSQGETMSALYRMATDEHRHISIKPNDLVIISAKAIPGNEASVSAVLNFLIKKEAKVAYQEFDNIHVSGHAAQEEQKLMLRLIKPKFFLPVHGEYNHVARHKQTAISCGVPEKNIYLMEDGDQVEVGPAFIKKVGTIKSGKSYVDNQSNLSIDTSIVQQREEVASAGVFVATIFVNKNKQALLESSQFSSLGLVGFKDEKPLIKEIQGGLEVLLKSSNAEILNNPKKLEDHTRNFIRKALFKKFRKYPAIICHAHSF
chain 2: B1 chain 1

Variants of: B1
Assay: BACTH (bacterial two hybrid), beta-galactosidase read-out
Conditions: with wild type RNase J, in E. coli, RNJ WT on pUT18, mutant on pKNT25, n ≥ 6, parent: 430, read off a plot

Variant | response [Miller units]
chain 1 E594A | 440
chain 1 K658A | 220
chain 1 E593A | 520
chain 1 K647A | 130
chain 1 E652A | 210
chain 1 E616A | 220
chain 1 E661A | 180
chain 1 K609A | 500
chain 1 K632A | 380
